The values below come from PMC6169833.

B1: Nup153-N wild type (1- to 608-amino-acid N-terminal construct of Nup153), C-terminally Flag-tagged [human] / endogenous Nup107 [human (endogenous in HEK293T)] (parent)
chain 1: MASGAGGVGGGGGGKIRTRRCHQGPIKPYQQGRQQHQGILSRVTESVKNIVPGWLQRYFNKNEDVCSCSTDTSEVPRWPENKEDHLVYADEESSNITDGRITPEPAVSNTEEPSTTSTASNYPDVLTRPSLHRSHLNFSMLESPALHCQPSTSSAFPIGSSGFSLVKEIKDSTSQHDDDNISTTSGFSSRASDKDITVSKNTSLPPLWSPEAERSHSLSQHTATSSKKPAFNLSAFGTLSPSLGNSSILKTSQLGDSPFYPGKTTYGGAAAAVRQSKLRNTPYQAPVRRQMKAKQLSAQSYGVTSSTARRILQSLEKMSSPLADAKRIPSIVSSPLNSPLDRSGIDITDFQAKREKVDSQYPPVQRLMTPKPVSIATNRSVYFKPSLTPSGEFRKTNQRIDNKCSTGYEKNMTPGQNREQRESGFSYPNFSLPAANGLSSGVGGGGGKMRRERTRFVASKPLEEEEMEVPVLPKISLPITSSSLPTFNFSSPEITTSSPSPINSSQALTNKVQMTSPSSTGSPMFKFSSPIVKSTEANVLPPSSIGFTFSVPVAKTAELSGSSSTLEPIISSSAHHVTTVNSTNCKKTPPEDCEGPFRPAEILKEGSV
chain 2: MDRSGFGEISSPVIREAEVTRTARKQSAQKRVLLQASQDENFGNTTPRNQVIPRTPSSFRQPFTPTSRSLLRQPDISCILGTGGKSPRLTQSSGFFGNLSMVTNLDDSNWAAAFSSQRSGLFTNTEPHSITEDVTISAVMLREDDPGEAASMSMFSDFLQSFLKHSSSTVFDLVEEYENICGSQVNILSKIVSRATPGLQKFSKTASMLWLLQQEMVTWRLLASLYRDRIQSALEEESVFAVTAVNASEKTVVEALFQRDSLVRQSQLVVDWLESIAKDEIGEFSDNIEFYAKSVYWENTLHTLKQRQLTSYVGSVRPLVTELDPDAPIRQKMPLDDLDREDEVRLLKYLFTLIRAGMTEEAQRLCKRCGQAWRAATLEGWKLYHDPNVNGGTELEPVEGNPYRRIWKISCWRMAEDELFNRYERAIYAALSGNLKQLLPVCDTWEDTVWAYFRVMVDSLVEQEIQTSVATLDETEELPREYLGANWTLEKVFEELQATDKKRVLEENQEHYHIVQKFLILGDIDGLMDEFSKWLSKSRNNLPGHLLRFMTHLILFFRTLGLQTKEEVSIEVLKTYIQLLIREKHTNLIAFYTCHLPQDLAVAQYALFLESVTEFEQRHHCLELAKEADLDVATITKTVVENIRKKDNGEFSHHDLAPALDTGTTEEDRLKIDVIDWLVFDPAQRAEALKQGNAIMRKFLASKKHEAAKEVFVKIPQDSIAEIYNQCEEQGMESPLPAEDDNAIREHLCIRAYLEAHETFNEWFKHMNSVPQKPALIPQPTFTEKVAHEHKEKKYEMDFGIWKGHLDALTADVKEKMYNVLLFVDGGWMVDVREDAKEDHERTHQMVLLRKLCLPMLCFLLHTILHSTGQYQECLQLADMVSSERHKLYLVFSKEELRKLLQKLRESSLMLLDQGLDPLGYEIQL

This assay covers variants of B1. The assay can be described thus: Flag immunoprecipitation and Western blotting, quantified with ImageJ. The following applies: HEK293T cells transfected with Nup153-N constructs, harvested 72 h after transfection, parent: 1, read off a plot. (In general: In western blotting, separated proteins are transferred to a membrane and probed.)
For chain 1 S516E S518E S519E S522E, the ratio to parent amounted to 0.57.
